The subject of series [1] is ZFN pair 33488/33501 (engineered). Briefly: cell_activity. As to conditions: K562 cells.
Series [2] relates to ZFN SBS 33488 (engineered). Kind of series: cell_activity. The note with it: pair with 33501, K562 cells; 37.5% in human CD34+ cells.

This is an account of results in US20180187173.

“CACCATGGTGCATCTGACTCCTGAGGAGAAGACTGCTGTCA (double strand) [HBD paralog site]”: in series [1] (off-target paralog, 28.6% in CD34+ cells), the activity worked out at 34 % indels.
Turning to “GGAGTCAGGTGCACCATGGTGTCTGTTT (double strand) [HBB left ZFN half-site]”, the activity in series [2] was found to be 66.6 % indels.
Regarding HBBP1 paralog site, the activity in series [1] (0.005% in CD34+ cells) amounted to 0.024 % indels.
For the substance HBE1 paralog site, the activity in series [1] (0.000% in CD34+ cells) was 0 % indels.
Substance HBG1 paralog site showed an activity in series [1] (0.000% in CD34+ cells) of 0.006 % indels.
Substance HBG2 paralog site gave an activity in series [1] (0.005% in CD34+ cells) of 0.013 % indels.
